Laboratory results: publication PMC8330776 (Emerging Microbes & Infections, 2021)

Target: SARS-CoV-2 S trimer (SARS-CoV-2, UniProt P0DTC2)
Test: SPR
Conditions: both partners purified

B1: wheat germ agglutinin (natural protein)
chain: QRCGEQGSNMECPNNLCCSQYGYCGMGGDYCGKGCQNGACWTSKRCGSQAGGATCTNNQCCSQYGYCGFGAEYCGAGCQGGPCRADIKCGSQAGGKLCPNNLCCSQWGFCGLGSEFCGGGCQSGACSTDKPCGKDAGGRVCTNNYCCSKWGSCGIGPGYCGAGCQSGGCDG
- Kd: 1.5 nM
- koff: 0.00482 s⁻¹
- kon: 3.21e+06 M⁻¹ s⁻¹
